“And” between values parts separate entries of the source, which are not always exact repeats. Equal entries are not always repeated.
Key:
[1] = target: T1, SARS-CoV-2 (Wuhan-Hu-1) spike receptor-binding domain, His-tagged (SARS-CoV-2, UniProt P0DTC2 319-541); assay: BLI; details: both partners purified
[2] = target: T1, SARS-CoV-2 (Wuhan-Hu-1) spike …; assay: BLI; details: both partners purified; remark: listed apart in the source

Binder	Kd [1]	Kd [2] [nM]
1H6 VHH-hFc fusion protein (Fc fusion, also called 1H6 VHH-Fc; source: Expi293 cells, transfected, purified (protein A column)) VHH: AVQLVDSGGGSVQAGGSLNLSCVASGTTLRNGCMAWFRQVPGKEREVVAIIIRATSYTDYADSVKGRFTISQDNAKNTVYLQMKSLTPEDTATYYCAATLYRVNCAKREFDKWGQGTQVTVSS	37 nM and 42 nM	
NCI-CoV-7A3 VHH-hFc fusion protein (Fc fusion, also called 7A3 VHH-Fc; source: Expi293 cells, transfected, purified (protein A column)) VHH: QVQLVESGGGSVQPGGSLRLSCVVSGYTSSSRYMGWFRQVPGKGLEWVSGIKRDGTNTYYADSVKGRFTISQDNAKNTVYLQMNSLKPEDTAMYYCAAGSWYNQWGYSMDYWGKGTQVTVSS	0.19 nM and 0.2 nM	0.2
8A4 VHH-hFc fusion protein (Fc fusion, also called 8A4 VHH-Fc; source: Expi293 cells, transfected, purified (protein A column)) VHH: EVQLVESGGGLVQPGESLRLSCEASGFTFSSVYMSWVRQAPGKGLEWISTIHPAGGSTYYADSMKDRFTISRDNAKNTLYLQMNSLKSEDTALYYCIIEALSGYRGPGTQVTVSS	0.14 nM and 0.18 nM	0.16
NCI-CoV-8A2 VHH-hFc fusion protein (Fc fusion, also called 8A2 VHH-Fc; source: Expi293 cells, transfected, purified (protein A column)) VHH: AVQLVDSGGGSVQAGGSLRLSCAASGYTYSICTMGWYRQAPGEGLEWVSGINADGSNTHYTDSVKGRFTISRDNAKKTLYLQMNSLKPEDTAIYYCAAHGTYDKYAPCGGFAGTYTYWGQGTQVTVSS	0.26 nM and 0.13 nM	0.26
